Assay results taken from the nanobody polyreactivity screen of Harvey et al. (2022).

Experiment: yeast display, Sf9 membrane polyspecificity reagent, FACS + sequencing; frameworks hold sequencing errors
Outline: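 In a synthetic yeast display library (Saccharomyces cerevisiae BJ5465), nanobody expression was induced with galactose for 36–48 hours. FACS gates were set low and high (top ~1%) using anti-HA fluorescence for expression and streptavidin fluorescence for binding of the Sf9 membrane reagent. Each polyreactivity label is drawn from the gate of origin.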

| Sequence | polyreactivity (PSR sort gate) |
| --- | --- |
| QVQLQERGGGLVQVRGSLRLSCAASGTIIIYGFMGWNRQAPGKERELVASINLGGITNYADSVTGRFTISRDNAKNTVYRQMISLKPEDNAVYYCAAYVVTGQNYGYWCQGTQVTVSS | low polyreactivity |
| QVQLQERGGGQVQAGGSLRLSCAASGTIFLYAFMGWYRQAPGKERELVAAIDVGTTTNYADSVKGRFTISRDNAKNTVYLQMNSLKPEDTAVYYCAANLGYLDDLGYWGQGTQVTVSS | low polyreactivity |
| QVQLQESAGGLVKAGGSLRLSCAASGNISNHNDMRWYRQAPGKEREFVAGITAGGNTNYADSVKGRFTISRDNAKNTVYLQMNSLKPEDTAVYYCAAYPDYAKSYGYWGQGTQATVSS | low polyreactivity |
| QVQLQESAGGLVQAGGSLRLRCSASGYISCDASMGWYRQAPGKERELAASITQGSSTNYADSVKGRFTIRDNAKNTVYLQMNSLKPEDTAVCYCAVTYPYWGDYTYWGQGTQVTVSS | low polyreactivity |
| QVQLQESAGGLVQAGGSLRLSCAASGTISTDSYMGWYRQAPGKERKFVATIGYGGITYYADSVKGRSTISRDSAKNTVYLQMNSLKPEDTAVYYCAVNSYYPDHYWYWGRGTQVTVSS | high polyreactivity |
| QVQLQESAGGLVQAGGSLRMSCAASGTIFSEANMGWYRQAPGKERELVATIGQGSTTNYADSVKGRFTISRDNAKNTVYLQMNSLKPEETAVYYCAVVTVDPVGFVYWGQGTQVTVSS | low polyreactivity |
| QVQLQESCGGLVQAGGSLRLSCAASGSIFDGFNMGWYRQAPGKEREFVAAISYGASTYYADSVKGRFTVSRDNAKNSVYLQMNSLKPEDTAVYYCAVYDELYHVLVYWGRGTQVTVSS | low polyreactivity |
| QVQLQESGAGLVQAGGRLRLSCASSGTITVLYKMGWFRQAPGKEREFVASINYGTSTYYADSVKGRFTVSRDSATNHEYLQMISLKPEDTAVYYCAAAYRWQDVYRYWGQGSQVTVSS | low polyreactivity |
| QVQLQESGAGLVQAGGSLRLCCAASGSIFYVYGMGWYRQAPGKERELVAGINAGTNTNYADSVRGRFTISRDNAKNTVHLQMNSLKPEDTAVYYCAADGNGYQAHEYWGQGTQVTVSS | high polyreactivity |
| QVQLQESGDGLVQAVGSLRLSCAASGYISGYNYMGWYRQAPGKERELVAGIDAFGSSTNYADCVKGRFTISRDNAKNTVYLQMNSPKPEDTAVYYCAAEYDDWDYLWYWGQGTQVTVSS | low polyreactivity |
| QVQLQESGDGLVQAVGSLRLSCAASGYISGYYYMGWYRQAPGKERELVAGIEAFGSSTNYADCVKGRFTISRDNAKNTVYLQMNSPKPEDTAVYYCAAEYDDWDYHWYWGQGTQVTVSS | low polyreactivity |
| QVQLQESGGCLVQAGGSLRLSCAASGPISRRSTMGWYSQAPGKERELVTAITRGTNTNYADSVKGRFTISRDNAKNTEYLQMNSLKTEDTAVYYCAAYGVLKPSRGDAVFHRYWGQGTQVTVSS | low polyreactivity |
| QVQLQESGGCLVQAGGSLRLSCAASGTNSDSGLMGWYRQAPGKERELVAGISSGGITTYADSVKGRFTISRDNAKNTVYLQMNSLKPEDTAVYWGQGTQVTVSC | low polyreactivity |
| QVQLQESGGGLEQAGGSLRLSCAATGTIFTDRFMGWYRQAPGKERELVAGISPGTSSNSADSVKGRFTISRDNAKNTVYLQMNSLKPEDTAVYYCAADWSTGNTLPYWGQGTQVTVSS | high polyreactivity |
| QVQLQESGGGLEQEGGSLRLSCAASGNISPPADMGWYRQAAGKERELVASIGTGGTTNYADSVKGRFNISRDNAKNTVYLQMNSLKPDDTSVYYCAAVRYEYNPYDYLGQGTQVTVSS | low polyreactivity |
| QVQLQESGGGLGQAGRSLRHSFAASGNIFDAGIMGWYRQAPGEERELVACITDGGSTNYADSVKRRFTISRDNAKNTVYLQMNSQKPEDTAVYYCAASWDTIGLFAYWGQGTQVTVSS | high polyreactivity |
| QVQLQESGGGLMQAGGNLRLSCAASGYISTHYDMDWYRQAPGKERELVARIDDGAITNYADSVKGRFTISRDNAKNTVYLQMNSLKPEDTAVYYCAVSSGDDYYHDYWGQGTQVTVSS | low polyreactivity |
| QVQLQESGGGLVHAGGSLRLSCAASGTISFINMMGWYRQAPGRERELVASINFGANTNYADSVKGRFTISRDNAKNTVYLQMNSLKPEDTAVYYCAVYDFDAYTLYYWGQGTLVTVSS | high polyreactivity |
| QVQLQESGGGLVHAGGSLRLSCAASVTISFINMMGWYRQAPGRERELDASINFGANTNYADSVKGRFTISRDNAKNSVYLQMNSLKPEDTAVYYCAVYDFDAYTLYYWGQGTLVTVSS | high polyreactivity |
| QVQLQESGGGLVLAGGSLRLSCAESGYISWSFTMGWYRKAPGKEREFVAGITYGGITYYADSVKGRFTISRDNAKNTVYLQMNSLKPEDTAVYYCAAPQTYPYVYVYWGQGTQVTVSS | high polyreactivity |
| QVQLQESGGGLVLAGGSLRLSCSASGNISVYGSMGWYRQAPGKEREFVATIDPGTNTNYADSVKDRFTISRDNAKNTVYLQMNSLKPEDTAVYYGAVEAGSDWPYPYWGQGTQVTVSS | low polyreactivity |
| QVQLQESGGGLVLAGGSLRLSCSASGNISVYGSMGWYRQAPGKEREFVATIDPGTNTNYADSVKDRFTISRDNAKNTVYLQMNSLKPVDTAVYFCAVEAGSDWPYRYWGQGTQVTVSS | low polyreactivity |

| Sequence | polyreactivity (PSR sort gate) |
| --- | --- |
| QVQLQESGGGLVLAGGSLRLSCSASGNISVYGSMGWYRQAPGKEREFVATIDPGTNTNYADSVKDRFTISRDNAKNTVYLQMNTRKPEDTAVYYCAVEAGSDWPYRYWGQGTEVTVSS | low polyreactivity |
| QVQLQESGGGLVLAGGSLRLSSAATGSISAQAYMGWDRQAPGKEREHVAGINYGDNTNYADSVKGRFTISRDNEHSVSADEQPESGRYRCVLLRGFLELFYYYIYWGQGTQVTVSS | high polyreactivity |
| QVQLQESGGGLVQADGSLRLSCAASGSMFGYYYMGWYRQAPGKDRELVATIHICGITNYADSVKGRFTISRDNAKNTVYLQMNSLKPDDTAVYYCAADEYAQRDLGYWGQGTQVTVSS | low polyreactivity |
| QVQLQESGGGLVQAGCSLRLSCAASGTISVHASMGWYRQAPGKERELVAGITDGANTYYADSVKGRFTISRDNSKNTVYLQMNSLKPEDTAVYYCAAYYGTEVHFTYWGQGTQVTVSS | low polyreactivity |
| QVQLQESGGGLVQAGGCLRLSCAASGTIFDPDYMVWYHQAPGKERELVASISLGRMTYYADSVKGRFTINRDNAKNTVYVQMNTLKPEDTAVYYCAVRVETIYYYSYWGQGTQVTVSS | high polyreactivity |
| QVQLQESGGGLVQAGGCLRLSCAASGTISTAYQMGWYRQAPGKEREFVAAIGYGAITNYADSVKGRFTISRDNAKNTVYLQMNSLKPEDTAVYYCAARRYVAGRGAYDYWGQGTQVTLSS | low polyreactivity |
| QVQLQESGGGLVQAGGCLSCTASGTIFGQGDMGWYRQAPGKERELVATINDGASTYYADSVKGRFTISRDKAKNTVYLQKNSLKPDDTAVYYCAVCTDITTYFGYWGQGTQVTVSS | low polyreactivity |
| QVQLQESGGGLVQAGGDLRLSCAASGKILRDYIMGWYRQASGKEREFVAGIDRGANTNYADSVKGRLTISRDNAKKTVYLQMNSLKPEDTAVYYCAVHTAIVPDFIYWGQGTQVTVSS | low polyreactivity |
| QVQLQESGGGLVQAGGDLRLSCAASGNIFLDYIMGWYRQAPGKEREFVAGIDRGANTNYADSVKGRFTISRDNAKNTLYLQMNSLKPEDTAVYYCAVHTAIVPDFIYWGQGTEVTVSS | low polyreactivity |
| QVQLQESGGGLVQAGGDLRLSCAASGNIFRDYIMGWYRQAPGKELEFVAGIDRGANTNYADSVKGRFTISRDNAKNTVYLQMNSLKPEDTAVYYCAVHTAIVPDFIYWGQGTQVTVSS | low polyreactivity |
| QVQLQESGGGLVQAGGDLRLSCAASGNIFRDYIMGWYRQAPGKEREFVAGIDRGANTNYADSVKGRFTISRDNAKNTVYLQMNSLKPEDTAVYYCAVHTAIVPDFIYWGQGSQVTVSS | low polyreactivity |
| QVQLQESGGGLVQAGGDLRLSCAASGNIFRDYIMGWYRQAPRKEREFVAGIDRGANTNYADSVKGRFTISRDNAKNTVYLLLNSLKPEDTAVYYCAVHTAIVPDFIYWGQGTQVTVSS | low polyreactivity |
| QVQLQESGGGLVQAGGILRLSCAACGNIFPSAVMGWYRQALAKEREFVATINSGSNTYYADSVKGRFTISRDNAKNTVYLQMNSLKLEDTAVYYCAAYFKLQAWHTYWGQGTQVTVSS | low polyreactivity |
| QVQLQESGGGLVQAGGILRLSCAASGTISDRAGMGWYREAPAKNAIGATIDRGTNTNYADSVKGRFTISRDNAKNTVYLQMNSLKREDTAVYNCAADGRYYIYLDYWGQGTQVTVSS | low polyreactivity |
| QVQLQESGGGLVQAGGRLRLSCAASGYISTFSSEMGWYRQAPGKERELVASIAPGCTTSYADSVKGRFTISRDYAKNTEFLQMNSLKPEDTAVYYCAVDYTVPASFGYWGQGSQVTVSS | high polyreactivity |
| QVQLQESGGGLVQAGGSLCLSCAASGTIFFDGDMGWYRQAPCKEREFVAAINPGGSAYYADSVKGRLPLAAITHTVYLQMNSLKPEDTAVYYCAAKLFDVYGYYYWGQGTHVTVSS | low polyreactivity |
| QVQLQESGGGLVQAGGSLCMSCAASGSISDYIFMGWYRQAPGKEREFVAGIGIGGNTNYADSVKGRFTISRDNAKNTVYLQMNSLKPEDTAVYYCAANATYTDYYAYWGQGTKVTVSS | low polyreactivity |
| QVQLQESGGGLVQAGGSLCMSCAASGSISDYIFMGWYRQAPGKEREFVAGIGIGGNTNYADSVKGRFTISRDNAKNTVYLQMNSLKPEDTAVYYCAANATYTDYYAYWGQGTQVTVSS | low polyreactivity |
| QVQLQESGGGLVQAGGSLGCAASGNISTRSEMGWYRQAPGKEREFVATINSGGITNYADSVKGRFTISRDNAKNTVYLRMNSLKPEDTAVYYRAVYGDFSDPYDYWGQGTQVTVSS | low polyreactivity |
| QVQLQESGGGLVQAGGSLGCAASGNISTRSEMGWYRQAPGKEREFVATINSGGITNYADSVKGRFTISRDNAKNTVYLRMNSLKPEDTAVYYRAVYGYFSDPYDYWGQGTQVTVSC | low polyreactivity |
| QVQLQESGGGLVQAGGSLLSCAASGTISYYREMGWYRQAPGKERELVAGIGVGTITYYADSVKGRFTISRDNAKNTVYLHMNSLKPEDTAVYYCAAHIDGNDSHAYWGQGTQVTVSS | low polyreactivity |
| QVQLQESGGGLVQAGGSLRKSCAASGSVSYQEAMGWYRQAPGKERELVATISFGANTNYADSVKGRFTISRDNAKNTVYLQMNSLKPEDTAVYYCAAESLFDDYYGYWGQGTQVTVSS | low polyreactivity |
